Results: the supplement of paper PMC7877785
± gives the uncertainty stated by the source.

Assay: self-splicing fitness, log relative to wild type (ln ratio); higher = more splicing; Tetrahymena group I intron in knt gene, E. coli kanamycin selection, DiMSum; sequences stand for … in CUCUCU…GGAGGGAAAAGUUAUCAGGCAUGCACCUGGUAGCUAGUCUUUAAACCAAUAGAUUGCAUCGGUUUAAAAGGCAAGACCGUCAAAUUGCGGGAAAGGGGUCAACAGCCGUUCAGUACCAAGUCUCAGGGGAAACUUUGAGAUGGCCUUGCAAAGGGUAUGGUAAUAAGCUGACGGACAUGGUCCUAACCACGCAGCCAAGUCCUAAGUCAACAGAUCUUCUGUUGAUAUGGAUGCAGUUCACAGACUAAAUGUCGGUCGGGGAAGAUGUAUUCUUCUCAUAAGAUAUAGUCGGACCUCUCCUUAAUGGGAGCUAGCGGAUGAAGUGAUGCAACACUGGAGCCGCUGGGAACUAAUUUGUAUGCGAAAGUAUAUUGAUUAGUUUUGGAGUACUCGUGGUCG
Procedure, shortened: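 The eight P1ex-region nucleotides of an intron in the knt kanamycin-resistance gene on pET-22b(+) were all randomised and the library put into E. coli BL21(DE3). Six replicate transformations were grown overnight at 37°C or 30°C on LB agar with or without 25 μg/mL kanamycin, together with 100 μg/mL carbenicillin, 50 μM IPTG and 0.2% rhamnose. Colonies were pooled and amplicon-sequenced on an Illumina HiSeq 2500. Fitness from DiMSum is the error-weighted combination of wild-type-normalised replicate fold changes, kanamycin over none.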

Sequence	self-splicing fitness (ln) (30 °C)	self-splicing fitness (ln) (37 °C)
CAUUAGCAAUAUUACGUCGG	-0.0974 ± 0.13	0.403 ± 0.14
CAUUAGCAAUAUUACGUCUC	-3.28 ± 0.27	-1.76 ± 0.23
CAUUAGCAAUAUUACGUGUG	-2.91 ± 0.19	-3.15 ± 0.19
CCAAAGCAAUAUUACGAAUU	-3.58 ± 0.15	-3.46 ± 0.19
CCAAAGCAAUAUUACGACUA	-2.34 ± 0.23	-2.7 ± 0.29
CCAAAGCAAUAUUACGACUG	-0.588 ± 0.071	-0.0799 ± 0.091
CCAAAGCAAUAUUACGAUUC	-3 ± 0.31	-1.71 ± 0.34
CCAAAGCAAUAUUACGAUUU	-3.85 ± 0.2	-1.98 ± 0.19
CCAAAGCAAUAUUACGCUAA	-2.86 ± 0.23	-2.7 ± 0.3
CCAAAGCAAUAUUACGGAAU	-4.11 ± 0.39	-2.95 ± 0.22
CCAAAGCAAUAUUACGGGGA	-3.41 ± 0.16	-2.93 ± 0.17
CCAAAGCAAUAUUACGGGUU	-2.96 ± 0.15	-2.5 ± 0.16
CCAAAGCAAUAUUACGGUAU	-3.41 ± 0.18	-2.08 ± 0.25
CCAAAGCAAUAUUACGGUCG	-0.306 ± 0.066	-0.674 ± 0.077
CCAAAGCAAUAUUACGGUGA	-3.77 ± 0.25	-4.04 ± 0.34
CCAAAGCAAUAUUACGGUGC	-4.01 ± 0.16	-2.19 ± 0.13
CCAAAGCAAUAUUACGUAAC	-4.73 ± 0.27	-2.72 ± 0.28
CCAAAGCAAUAUUACGUCCG	-0.225 ± 0.11	-0.354 ± 0.14
CCAAAGCAAUAUUACGUCUC	-3.08 ± 0.13	-2.89 ± 0.092
CCAAAGCAAUAUUACGUGUA	-3.72 ± 0.14	-1.97 ± 0.12
CCAAAGCAAUAUUACGUGUU	-3.49 ± 0.11	-1.56 ± 0.09
CCAAAGCAAUAUUACGUUAA	-3.93 ± 0.26	-1.97 ± 0.22
CCAAAGCAAUAUUACGUUAG	-1.89 ± 0.071	-0.652 ± 0.073
CCAAAGCAAUAUUACGUUCG	-0.496 ± 0.055	0.165 ± 0.069

Sequence	self-splicing fitness (ln) (30 °C)	self-splicing fitness (ln) (37 °C)
CCAAAGCAAUAUUACGUUUG	-2.93 ± 0.089	-1.43 ± 0.086
CCACAGCAAUAUUACGAAGA	-1.5 ± 0.15	-2.55 ± 0.24
CCACAGCAAUAUUACGAAGC	-3.85 ± 0.2	-2.3 ± 0.15
CCACAGCAAUAUUACGAAGG	-3.62 ± 0.13	-2.92 ± 0.16
CCACAGCAAUAUUACGACAG	-1.06 ± 0.083	-0.0398 ± 0.088
CCACAGCAAUAUUACGACUC	-2.46 ± 0.18	-2.76 ± 0.3
CCACAGCAAUAUUACGAGCU	-3.67 ± 0.15	-2.4 ± 0.15
CCACAGCAAUAUUACGAGUU	-2.76 ± 0.09	-2.76 ± 0.12
CCACAGCAAUAUUACGCACA	-2.44 ± 0.15	-2.33 ± 0.25
CCACAGCAAUAUUACGCACG	-0.551 ± 0.063	-0.626 ± 0.093
CCACAGCAAUAUUACGCCUA	-2.47 ± 0.28	-2.79 ± 0.34
CCACAGCAAUAUUACGCUCA	-2.89 ± 0.21	-2.41 ± 0.27
CCACAGCAAUAUUACGCUCU	-4.07 ± 0.17	-2.1 ± 0.16
CCACAGCAAUAUUACGCUUG	-2.66 ± 0.075	-1.96 ± 0.083
CCACAGCAAUAUUACGGAUC	-4.54 ± 0.34	-2.8 ± 0.27
CCACAGCAAUAUUACGGCAA	-2.92 ± 0.29	-2.74 ± 0.32
CCACAGCAAUAUUACGGCAU	-3.72 ± 0.16	-2.54 ± 0.18
CCACAGCAAUAUUACGGCCC	-2.78 ± 0.29	
CCACAGCAAUAUUACGGCUG	-3.26 ± 0.15	-2.48 ± 0.15
CCACAGCAAUAUUACGGUCG	-0.147 ± 0.066	0.437 ± 0.086
CCACAGCAAUAUUACGGUCU	-3.44 ± 0.11	-1.87 ± 0.12
CCACAGCAAUAUUACGUAAA	-3.84 ± 0.17	-2.06 ± 0.18
CCACAGCAAUAUUACGUAGA	-2.28 ± 0.085	-1.5 ± 0.12
